Measurements: patent US7662384B2, “Use of anti-α5β1 antibodies to inhibit cancer cell proliferation” (Facet Biotech Corporation, priority 2004, dated 2010)

How the values were obtained:
human NW231 tumors = assay: NW231 xenograft tumor establishment, IIA1 with DOXIL; format: in vivo, SCID mice; conditions: 24 days post-implant (control TIB ~425 mm^3)
Procedure: The following experiment was conducted in order to determine the efficacy of the anti-α5β1 integrin antibody, IIA1 in combination with the chemotherapeutic agent, DOXIL®, for preventing establishment of human NW231 tumors in vivo. DOXIL® is a liposome encapsulated formulation of doxorubicin HCl, a cytotoxic anthracycline antibiotic isolated from Streptomyces peucetius. The NW231 cell line originated from breast cancer and is considered a good model for studying treatments for breast cancer.
Four to six week old female SCID mice obtained from Taconic Farms and maintained in micro-isolator cages were inoculated in the mammary fat pads with 1×10^7 NW231 cells. Animals received either TIB control (n=20) or […] (n=20) at 5 mg/kg for the first injection at the time of tumor cell inoculation. Subsequent treatments were at 0.7 mg/kg per injection. DOXIL® treatment was commenced 5 days post tumor cell inoculation. Chemotherapeutic doses were at 4 mg/kg for the first injection and at 2 mg/kg for subsequent injections. Reagents were delivered by intraperitoneal injection for four doses. Tumor volume was measured twice weekly and clinical and mortality observations were performed daily according to IACUC regulations.

[1] = Phase I dose-escalation study: immunogenicity (double-antigen bridging ELISA); format: in vivo, human
Procedure: Immunogenicity of M200 was determined by a double-antigen bridging ELISA assay. Serum samples for anti-M200 antibodies were obtained from patients before treatment, prior to the second dose, and at study exit, 45 days after the last dose of M200. In addition, serum for anti-M200 antibodies was drawn if the interval between doses was […]. Samples were stored and evaluated at the end of the study. Samples that tested positive for antibodies to M200 were re-assayed for neutralizing antibodies to M200. Patients with known exposure to murine or chimeric monoclonal antibodies were screened for the presence of anti-M200 antibodies prior to receiving the first dose of M200.

α5β1 sites on monocytes = target: T1, α5β1 sites on monocytes (Homo sapiens, UniProt P05556+P08648); assay: Phase I study: saturation of α5β1 sites on monocytes by flow cytometry; format: in vivo; conditions: 10 mg/kg dosage
T1 construct: endogenous in cells; host or cells: CD14+ monocytes in peripheral blood of human patients
T1 sequence (P08648 42-894 limits assumed): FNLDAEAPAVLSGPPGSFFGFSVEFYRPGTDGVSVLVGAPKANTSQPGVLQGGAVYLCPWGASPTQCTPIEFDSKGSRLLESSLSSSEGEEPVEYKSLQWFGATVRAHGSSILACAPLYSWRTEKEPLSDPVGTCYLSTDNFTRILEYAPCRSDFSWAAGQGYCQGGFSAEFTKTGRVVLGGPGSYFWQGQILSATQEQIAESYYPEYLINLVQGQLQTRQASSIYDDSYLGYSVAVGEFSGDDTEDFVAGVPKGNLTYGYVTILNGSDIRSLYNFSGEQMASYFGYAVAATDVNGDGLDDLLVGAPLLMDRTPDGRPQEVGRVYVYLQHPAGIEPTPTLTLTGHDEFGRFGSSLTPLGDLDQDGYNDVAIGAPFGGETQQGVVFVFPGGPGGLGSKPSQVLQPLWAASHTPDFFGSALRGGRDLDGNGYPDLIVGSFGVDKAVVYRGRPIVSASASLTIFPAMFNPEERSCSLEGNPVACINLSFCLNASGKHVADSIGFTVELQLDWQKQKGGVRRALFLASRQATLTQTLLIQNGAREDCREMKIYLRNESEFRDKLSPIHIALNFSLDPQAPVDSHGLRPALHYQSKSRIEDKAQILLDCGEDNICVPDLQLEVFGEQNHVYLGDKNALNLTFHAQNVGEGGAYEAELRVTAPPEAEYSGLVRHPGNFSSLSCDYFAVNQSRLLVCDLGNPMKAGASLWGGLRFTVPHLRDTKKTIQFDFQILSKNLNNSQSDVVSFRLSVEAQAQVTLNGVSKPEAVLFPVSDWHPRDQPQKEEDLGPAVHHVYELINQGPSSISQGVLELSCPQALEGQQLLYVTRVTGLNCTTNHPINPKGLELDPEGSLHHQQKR
T1 sequence (P08648 895-1049 limits assumed): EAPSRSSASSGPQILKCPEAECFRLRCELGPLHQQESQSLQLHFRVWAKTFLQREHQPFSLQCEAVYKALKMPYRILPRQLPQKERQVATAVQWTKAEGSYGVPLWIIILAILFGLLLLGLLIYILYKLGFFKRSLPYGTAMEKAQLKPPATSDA
T1 sequence (P05556 21-798): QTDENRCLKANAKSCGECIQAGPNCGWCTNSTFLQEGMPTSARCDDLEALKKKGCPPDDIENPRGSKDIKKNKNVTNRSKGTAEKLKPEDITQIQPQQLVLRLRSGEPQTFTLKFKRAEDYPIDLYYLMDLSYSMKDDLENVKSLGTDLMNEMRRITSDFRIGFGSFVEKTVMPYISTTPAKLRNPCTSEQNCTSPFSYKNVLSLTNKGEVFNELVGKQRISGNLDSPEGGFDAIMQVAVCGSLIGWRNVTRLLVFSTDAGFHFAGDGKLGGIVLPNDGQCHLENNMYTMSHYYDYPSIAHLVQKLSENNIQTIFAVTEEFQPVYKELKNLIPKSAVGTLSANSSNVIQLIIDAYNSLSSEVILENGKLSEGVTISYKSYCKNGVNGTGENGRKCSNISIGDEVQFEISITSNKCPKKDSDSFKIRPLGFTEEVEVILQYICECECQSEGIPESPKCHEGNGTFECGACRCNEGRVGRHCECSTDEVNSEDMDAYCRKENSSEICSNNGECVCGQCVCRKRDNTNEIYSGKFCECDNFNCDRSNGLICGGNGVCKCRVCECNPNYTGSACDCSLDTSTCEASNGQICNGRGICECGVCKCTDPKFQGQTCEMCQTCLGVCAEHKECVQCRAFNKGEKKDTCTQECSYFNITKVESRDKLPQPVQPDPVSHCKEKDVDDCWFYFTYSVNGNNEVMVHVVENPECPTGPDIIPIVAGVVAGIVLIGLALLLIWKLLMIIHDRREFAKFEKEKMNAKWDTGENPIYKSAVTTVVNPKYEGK
Procedure: The integrin α5β1 is also expressed on monocytes in the peripheral blood. To determine the dose at which the α5β1 sites on these circulating cells is saturated by M200, samples of peripheral blood were taken before the first dose on Study Day 1, Study Days 2 and 8, just before each subsequent dose, and on Study Day 43. The saturation of α5β1 sites on monocytes was determined by flow cytometry. The monocytes were identified by using antibodies to CD14. Bound M200 on the monocyte surface was detected by adding labeled anti-human IgG4. Unoccupied (free) α5β1 on the cells was detected by adding labeled IIA1. The percentages of monocytes and lymphocytes expressing α5β1 was also assessed.

[2] = pharmacokinetic studies in cynomolgus monkeys; format: in vivo
[3] = target: α5β1 integrin binding to fibronectin (Homo sapiens, UniProt P05556+P08648); assay: in vitro activity assay: inhibition of binding of α5β1 to fibronectin; format: biochemical
α5β1 integrin binding to fibronectin, sequence (P08648 42-894 limits assumed): as the sequence (P08648 42-894 limits assumed) above
α5β1 integrin binding to fibronectin, sequence (P08648 895-1049 limits assumed): as the sequence (P08648 895-1049 limits assumed) above
α5β1 integrin binding to fibronectin, sequence (P05556 21-798): as the sequence (P05556 21-798) above

NW231 = assay: M200 in vitro cell proliferation assay; format: cell-based, human; conditions: NW231 (breast)
Procedure: Cancer cell lines were plated at a density of 2500 cells/well in 96-well plates in IMDM with supplements in the presence or absence of 10% FBS. At the time of plating, cells were challenged with various concentrations M200 or a non-function blocking anti-α5 antibody, VC5. […] All growth studies were done at least 3 times in triplicate.

[4] = predicted human serum levels of M200 from monkey PK data; parameters: species or system humans
Procedure: At the highest dose in humans (15.0 mg/kg), the mean peak after 5 doses was predicted to be 592 μg/mL with the range of variability in humans predicted as 320 to 829 μg/mL. Table 3, was compiled using PK data from the monkey studies to predict the peak and tough serum concentrations (Cmax and Cmin, respectively) for each dose at each dose level in humans.

angiogenesis = conditions: rabbit eye model; cited from earlier work

B1: IIA1: parent mouse IgG1 class anti-α5β1 antibody shown to inhibit α5β1 integrin binding to fibronectin (antibody, V domains shown)
VH: MAVLGLLLCLVTFPSCVLSQVQLKESGPGLVAPSQSLSITCTISGFSLTDYGVHWVRQPPGKGLEWLVVIWSDGSSTYNSALKSRMTIRKDNSKSQVFLIMNSLQTDDSAMYYCARHGTYYGMTTTGDALDYWGQGTSVTVSS
VL: MDFQVQIFSFLLISASVIMSRGQIVLTQSPAIMSASLGERVTMTCTASSSVSSNYLHWYQQKPGSAPNLWIYSTSNLASGVPARFSGSGSGTSYSLTISSMEAEDAATYYCHQYLRSPPTFGGGTKLEIK
modifications: mus muscalus
Human NW231 tumors
  mean tumor volume: ~175 mm^3

B2: M200: chimeric IgG4 anti-α5β1 antibody derived from IIA1; generic name volociximab (antibody, V domains shown)
VH: MAVLGLLLCLVTFPSCVLSQVQLKESGPGLVAPSQSLSITCTISGFSLTDYGVHWVRQPPGKGLEWLVVIWSDGSSTYNSALKSRMTIRKDNSKSQVFLIMNSLQTDDSAMYYCARHGTYYGMTTTGDALDYWGQGTSVTVSS
VL: MDFQVQIFSFLLISASVIMSRGQIVLTQSPAIMSASLGERVTMTCTASSSVSSNYLHWYQQKPGSAPNLWIYSTSNLASGVPARFSGSGSGTSYSLTISSMEAEDAATYYCHQYLRSPPTFGGGTKLEIKDMSVDMSV
modifications: chimeric antibody
notes: chimeric IgG4 anti-α5β1 antibody derived from IIA1; generic name volociximab
[1]; 0.5 mg/kg and 1.0 mg/kg dose levels
  patients tested positive for anti-M200 antibodies: Three
[1]; higher dose cohorts
  patients tested positive for anti-M200: No patients
α5β1 sites on monocytes
  monocyte saturation: monocyte saturation
[2]; 50 mg/kg after 4 weekly doses
  mean peak level (serum): 1862 µg/mL
  range of peak level (serum): 1000 to 2606 µg/mL
[2]; at peak serum concentrations after 50 mg/kg, 4 weekly doses
  toxicity: no toxicity
[3]
  concentration that produces 80% inhibition of binding of α5β1 to fibronectin: 1 µg/mL
NW231; 10% FBS, 4-day assay
  % Growth Inhibition +Serum: 35%
NW231; absence of serum, 2-day rather than 4-day assay
  % Growth Inhibition −Serum: 10^2%
[4]; 0.5 mg/kg, dose number 1
  Estimated peak serum level (Cmax) in humans: 11 µg/mL
  Estimated trough serum level (Cmin) in humans: 1.5 µg/mL
[4]; 0.5 mg/kg, dose number 2
  Estimated peak serum level (Cmax) in humans: 11 µg/mL
  Estimated trough serum level (Cmin) in humans: 1.6 µg/mL
[4]; 0.5 mg/kg, dose number 3
  Estimated peak serum level (Cmax) in humans: 12 µg/mL
  Estimated trough serum level (Cmin) in humans: 2 µg/mL
[4]; 0.5 mg/kg, dose number 4
  Estimated peak serum level (Cmax) in humans: 13 µg/mL
  Estimated trough serum level (Cmin) in humans: 2.1 µg/mL
[4]; 0.5 mg/kg, dose number 5
  Estimated peak serum level (Cmax) in humans: 13 µg/mL
  Estimated trough serum level (Cmin) in humans: 2.2 µg/mL
[4]; 1.0 mg/kg, dose number 1
  Estimated peak serum level (Cmax) in humans: 22 µg/mL
  Estimated trough serum level (Cmin) in humans: 3 µg/mL
[4]; 1.0 mg/kg, dose number 2
  Estimated peak serum level (Cmax) in humans: 22 µg/mL
  Estimated trough serum level (Cmin) in humans: 3 µg/mL
[4]; 1.0 mg/kg, dose number 3
  Estimated peak serum level (Cmax) in humans: 25 µg/mL
  Estimated trough serum level (Cmin) in humans: 4 µg/mL
[4]; 1.0 mg/kg, dose number 4
  Estimated peak serum level (Cmax) in humans: 26 µg/mL
  Estimated trough serum level (Cmin) in humans: 5 µg/mL
[4]; 1.0 mg/kg, dose number 5
  Estimated peak serum level (Cmax) in humans: 26 µg/mL
  Estimated trough serum level (Cmin) in humans: 5 µg/mL
[4]; 2.5 mg/kg, dose number 1
  Estimated peak serum level (Cmax) in humans: 54 µg/mL
  Estimated trough serum level (Cmin) in humans: 9 µg/mL
[4]; 2.5 mg/kg, dose number 2
  Estimated peak serum level (Cmax) in humans: 57 µg/mL
  Estimated trough serum level (Cmin) in humans: 10 µg/mL
[4]; 2.5 mg/kg, dose number 3
  Estimated peak serum level (Cmax) in humans: 64 µg/mL
  Estimated trough serum level (Cmin) in humans: 13 µg/mL
[4]; 2.5 mg/kg, dose number 4
  Estimated peak serum level (Cmax) in humans: 67 µg/mL
  Estimated trough serum level (Cmin) in humans: 14 µg/mL
[4]; 2.5 mg/kg, dose number 5
  Estimated peak serum level (Cmax) in humans: 68 µg/mL
  Estimated trough serum level (Cmin) in humans: 15 µg/mL
[4]; 5.0 mg/kg, dose number 1
  Estimated peak serum level (Cmax) in humans: 108 µg/mL
  Estimated trough serum level (Cmin) in humans: 20 µg/mL
[4]; 5.0 mg/kg, dose number 2
  Estimated peak serum level (Cmax) in humans: 114 µg/mL
  Estimated trough serum level (Cmin) in humans: 24 µg/mL
[4]; 5.0 mg/kg, dose number 3
  Estimated peak serum level (Cmax) in humans: 132 µg/mL
  Estimated trough serum level (Cmin) in humans: 33 µg/mL
[4]; 5.0 mg/kg, dose number 4
  Estimated peak serum level (Cmax) in humans: 141 µg/mL
  Estimated trough serum level (Cmin) in humans: 39 µg/mL
[4]; 5.0 mg/kg, dose number 5
  Estimated peak serum level (Cmax) in humans: 147 µg/mL
  Estimated trough serum level (Cmin) in humans: 43 µg/mL
[4]; 10.0 mg/kg, dose number 1
  Estimated peak serum level (Cmax) in humans: 216 µg/mL
  Estimated trough serum level (Cmin) in humans: 51 µg/mL
[4]; 10.0 mg/kg, dose number 2
  Estimated peak serum level (Cmax) in humans: 236 µg/mL
  Estimated trough serum level (Cmin) in humans: 66 µg/mL
[4]; 10.0 mg/kg, dose number 3
  Estimated peak serum level (Cmax) in humans: 282 µg/mL
  Estimated trough serum level (Cmin) in humans: 101 µg/mL
[4]; 10.0 mg/kg, dose number 4
  Estimated peak serum level (Cmax) in humans: 317 µg/mL
  Estimated trough serum level (Cmin) in humans: 131 µg/mL
[4]; 10.0 mg/kg, dose number 5
  Estimated peak serum level (Cmax) in humans: 346 µg/mL
  Estimated trough serum level (Cmin) in humans: 156 µg/mL
[4]; 15.0 mg/kg
  predicted terminal half-life in humans: about 13 days
[4]; 15.0 mg/kg, dose number 1
  Estimated Cmax range (54-140%) in humans: 175 to 453 µg/mL
  Estimated peak serum level (Cmax) in humans: 324 µg/mL
  Estimated trough serum level (Cmin) in humans: 91 µg/mL
[4]; 15.0 mg/kg, dose number 2
  Estimated Cmax range (54-140%) in humans: 197 to 512 µg/mL
  Estimated peak serum level (Cmax) in humans: 366 µg/mL
  Estimated trough serum level (Cmin) in humans: 126 µg/mL
[4]; 15.0 mg/kg, dose number 3
  Estimated Cmax range (54-140%) in humans: 243 to 629 µg/mL
  Estimated peak serum level (Cmax) in humans: 450 µg/mL
  Estimated trough serum level (Cmin) in humans: 200 µg/mL
[4]; 15.0 mg/kg, dose number 4
  Estimated Cmax range (54-140%) in humans: 283 to 733 µg/mL
  Estimated peak serum level (Cmax) in humans: 524 µg/mL
  Estimated trough serum level (Cmin) in humans: 268 µg/mL
[4]; 15.0 mg/kg, dose number 5
  Estimated peak serum level (Cmax) in humans: 592 µg/mL
  Estimated trough serum level (Cmin) in humans: 332 µg/mL
[4]; all doses <10.0 mg/kg
  predicted time to steady state concentration: ≤ 4 weeks
[4]; doses ≧10.0 mg/kg
  predicted time to steady state concentration: ≤ 5 weeks
angiogenesis
  in vivo anti-angiogenic efficacy: in vivo anti-angiogenic efficacy
